Among the data in the supplement of paper PMC12042874 are amyloid nucleation score values, retold here.

± gives the uncertainty stated by the source.

The nature of this data set: amyloid nucleation score (Sup35N fusion, yeast selection) (log enrichment); library NNK1; higher = more nucleation; inactive = no reads after selection. The procedure, abridged: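 Nucleation score: DiMSum log enrichment of output over input reads, centred on the mode score of non-aggregating sequences. Only sequences with at least 100 input reads were kept. Reads came from Illumina sequencing of plasmid inserts before and after 7 days of growth at 30°C without adenine and uracil, in psi-negative yeast expressing Sup35N fused to peptides of 20 random codons after 24 hours of induction with 100 μM copper sulfate.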
SFEFGSSGRICVCIMFPVER gave an amyloid nucleation score of 1.08 ± 0.56.

Turning to SLNKRWCLRTQFGVAMVRTP, the amyloid nucleation score stood at 0.416 ± 0.99.

The substance QSLFFPFARFVTNILRYYKF gave an amyloid nucleation score of -0.531 ± 0.45.

Substance GLKMFKMCLCNMALDIF gave an amyloid nucleation score of 7.428 ± 0.073.

Substance GFLTSSIYRSLAVQLNQSWW came in with an amyloid nucleation score of 0.078 ± 0.32.

For HSLSFTNVVDTSLPLVLANF, the amyloid nucleation score is -2.15 ± 2.4.

In turn, GIAAYNGDLWMRLCYL showed an amyloid nucleation score of -0.255 ± 0.88.

On to RCDNAQLHIFVHLFRSVSDM, for which the amyloid nucleation score result was “inactive”.

MGCLN: the amyloid nucleation score is 0.082 ± 0.62.

As to NSFRAAHWSEMVPAELGRSV, the amyloid nucleation score is -0.513 ± 0.41.

KNSLTTKVLLCTLAATL came in with an amyloid nucleation score of 0.603 ± 0.73.

In turn, RSDDKVSRSVGDHCTVGVLR yielded an amyloid nucleation score of 6.441 ± 0.061.

YKIGLT returned an amyloid nucleation score of -0.227 ± 0.48.

SVFELLCSPQSVNRTFNTPY returned an amyloid nucleation score of 1.09 ± 0.36.

In turn, GTFDSN registered an amyloid nucleation score of 0.045 ± 0.46.

DMQSEGDRGDHRGSRDCRS: the amyloid nucleation score was determined as 0.983 ± 1.

On to KSESDL, for which the amyloid nucleation score entry is “inactive”.

Take VKRHNLLCWRFMDFTINLGG: the amyloid nucleation score worked out at 4.01 ± 0.13.

The substance YGPGWTRWLENLSLYSMYEP registered an amyloid nucleation score of -0.102 ± 1.5.

MMTGFNNIPTIKQLGSCAHY registered an amyloid nucleation score of 0.291 ± 0.97.

Consider SYEVFEIISNCLEY, for which the amyloid nucleation score was -0.321 ± 0.35.

Regarding RINLVSVYDRSNDKVSIPS, the amyloid nucleation score is 0.454 ± 0.55.

LYGSRPYSTTKTY registered an amyloid nucleation score of -0.11 ± 0.33.

Consider KVFINVYIKRQRNKCRRSNR, for which the amyloid nucleation score is 5.899 ± 0.054.

The substance NDRLFLHGARKLTVLIFVVG registered an amyloid nucleation score of -0.015 ± 0.3.

HRCPLTGFSSL came in with an amyloid nucleation score of 0.022 ± 0.45.

In the case of KRLHRGCWEVGSRGSLKLVN, the amyloid nucleation score is -1.14 ± 1.6.

NSFWTLVFSGHPACWLTVFI displayed an amyloid nucleation score of -0.75 ± 0.59.

In turn, TVLTTTHFARSVFTLPGKSP registered an amyloid nucleation score of 2.89 ± 0.17.

The substance WCYFVRDGVGVGEVTCPRQR displayed an amyloid nucleation score of 0.273 ± 0.54.

YLPIKPFIYANILWGFTVSC: the amyloid nucleation score was -0.025 ± 1.

DCLRILDGQYRRRIDRALRV displayed an amyloid nucleation score of 0.09 ± 0.7.

As to GTFVEISRYIDGCHLVFGNR, the amyloid nucleation score stood at 2.38 ± 0.16.

On to RCLSQNYCLSLASRLEHMCI, for which the amyloid nucleation score amounted to 0.572 ± 1.1.

As to GLALHGIEWVCCVQDQSFDR, the amyloid nucleation score is 7.08 ± 0.071.

Substance GRGHREPIVKDAAGRLGSWS showed an amyloid nucleation score of -0.421 ± 0.94.

The substance LHGLNF gave an amyloid nucleation score of 0.843 ± 0.74.

SRSIRSYDPWMVCMSMWLSD registered an amyloid nucleation score of 1.13 ± 0.9.

Substance ILSFMYYDTHAPLKFAVQVK gave an amyloid nucleation score of 0.296 ± 0.45.

CLFFNYRVIEFNTPGVNMFW yielded an amyloid nucleation score of 0.739 ± 0.33.

FYIVIDYFRNCAG returned an amyloid nucleation score of 0.005 ± 0.38.

LRLMLCFMFYAWTALCKPRD: the amyloid nucleation score came out at 0.31 ± 0.23.

Substance CQVPGSRRHRRSIRERQNWN showed an amyloid nucleation score of 1.32 ± 0.62.

Take SWNRGVLESHKHAYFALPQF: the amyloid nucleation score amounted to 0.417 ± 0.24.

With RESDFYTLDLRQVMISAEPL, the amyloid nucleation score amounted to 0.158 ± 0.36.

For TSDGVMMVR, the amyloid nucleation score amounted to 0.564 ± 0.34.

Consider RYVPVATKSSTGMSYWDIMV, for which the amyloid nucleation score was found to be 0.194 ± 0.38.

Turning to MMPVRWHMFDAWDLWIDLER, the amyloid nucleation score is -0.456 ± 0.88.

For VGLINHYSSSNMLG, the amyloid nucleation score came to 0.161 ± 0.62.

Consider SGPRRQIDAIMFRGL, for which the amyloid nucleation score was -0.086 ± 1.2.

On to WVVVDTLVRTGGCCWGYWKT, for which the amyloid nucleation score is 1.91 ± 0.27.

Regarding WEDSGVIFLMVCCSVYLGNL, the amyloid nucleation score turned out to be 2.66 ± 0.12.

CFPDICWHSVK returned an amyloid nucleation score of 0.125 ± 0.79.

Substance ASVAHLCGQLTVDTGFRITG displayed an amyloid nucleation score of 0.138 ± 0.33.

On to NSVWLLTNVLKFGTNVSRHR, for which the amyloid nucleation score stood at 2.57 ± 0.16.

TSWFAFANWVLPSFHYTPVP returned an amyloid nucleation score of 0.43 ± 0.43.

Regarding FWIWVCSDLLLD, the amyloid nucleation score came to 0.423 ± 0.43.

RYRSVVIPRVHAIEVIYAAC registered an amyloid nucleation score of -0.378 ± 0.97.

For MNTSVAWMVR, the amyloid nucleation score is -0.149 ± 0.32.

Substance CLGQDKLWNFVFTFLYLLQF had an amyloid nucleation score of -0.172 ± 0.48.

TCLWSYSNAFENPR had an amyloid nucleation score of 1.85 ± 0.31.

The substance LTLFLCISRLPGTPTLYWVL showed an amyloid nucleation score of 0.752 ± 0.62.

As for SKDYVDL, the amyloid nucleation score result was “inactive”.

With PVLPDDLNARREYSGCIKYL, the amyloid nucleation score turned out to be 0.765 ± 0.55.

Consider YVSYRIVLGRMPGMKHSRKR, for which the amyloid nucleation score is 3.6 ± 0.088.

Take NFKQGNSYVCNSCLGCGVSR: the amyloid nucleation score was 6.45 ± 0.084.

Consider VYLVMSVCGTRNGYKHSSQL, for which the amyloid nucleation score came to 0.265 ± 0.25.

Take EVRRFMTPGENESSREVAYF: the amyloid nucleation score is -0.02 ± 0.45.

Substance KLMSEFTKFVFSLLSSNKSH gave an amyloid nucleation score of -0.457 ± 0.31.

For the substance FDKSRVDRLSDKGRCCCVL, the amyloid nucleation score stood at 1.36 ± 0.69.

The substance DNYVMWVLEGLSYVLGNNRI showed an amyloid nucleation score of -0.087 ± 1.

TSTRRHYRVFARAQQEQNSP yielded an amyloid nucleation score of 0.869 ± 0.49.

For the substance LEKINQVSGLDFRRIEFEPS, the amyloid nucleation score is -0.172 ± 1.2.

YKYINSVQIYEHV came in with an amyloid nucleation score of 4.19 ± 0.13.

HILSSVLHSGVCMWTVITPY returned an amyloid nucleation score of 0.72 ± 0.71.

Substance FNYLICAVDSRTLNSW displayed an amyloid nucleation score of 4.7 ± 0.05.

FRLMPEYVATYMLSLRMCQC registered an amyloid nucleation score of -0.565 ± 1.2.

As to TWMLVEVVNCCLYTHVFYR, the amyloid nucleation score was found to be 4.27 ± 0.061.

For KKYVMSNVTCVE, the amyloid nucleation score was determined as 0.934 ± 0.47.

VRKNSERGVK: the amyloid nucleation score is -0.591 ± 0.4.

SILVRVSVR: the amyloid nucleation score is 0.444 ± 1.2.

Consider FLQRIKNHAVSAGWIYSLSK, for which the amyloid nucleation score was 0.106 ± 0.43.

Consider VSGVYLRFRASCRSY, for which the amyloid nucleation score is -0.105 ± 0.58.

Substance MHPAVVYCPLIK displayed an amyloid nucleation score of 0.735 ± 0.64.

NYHLGCCNISMF registered an amyloid nucleation score of 7.856 ± 0.047.

Substance PACFSGCEVGFASDMCVLEL displayed an amyloid nucleation score of 0.947 ± 0.42.

In turn, LTLALESLEPIRLTRNMWAL yielded an amyloid nucleation score of -0.411 ± 0.65.

Regarding CMVSIQVVFKH, the amyloid nucleation score worked out at 4.44 ± 0.1.

Turning to TCRLKLVFLNVTVKSKFCVL, the amyloid nucleation score is -0.362 ± 0.76.

Regarding SRVQYLILDIMVTRYGASTS, the amyloid nucleation score is -0.262 ± 0.53.

The substance NIEIRVCSRIVGHGLKFPKP registered an amyloid nucleation score of 3.37 ± 0.17.

Turning to SFRAKDG, the amyloid nucleation score entry was “inactive”.

With TSCEGEDFGRKLSREMVLWC, the amyloid nucleation score was determined as 0.234 ± 0.68.

FRWTLTSLRSVNDFSG had an amyloid nucleation score of 0.948 ± 0.65.

In turn, RFETRTL displayed an amyloid nucleation score of 0.93 ± 0.31.

The substance RMDSGIGDRSTGGDRTNGMW came in with an amyloid nucleation score of -0.546 ± 0.53.

For the substance CTVRFIYRKLN, the amyloid nucleation score was -0.325 ± 0.33.

On to WFHSQVTQNYSVWLLSTNYS, for which the amyloid nucleation score is -0.091 ± 0.56.

In turn, VSRWSGEEPISCSYGTLR had an amyloid nucleation score of -0.164 ± 0.6.

LIKGWSYPGVPCVGLLMDGK showed an amyloid nucleation score of 0.27 ± 0.33.

Take VDVAVVDTNLSLNMACKGWT: the amyloid nucleation score stood at 1.21 ± 0.45.

The substance GLSIQ registered an amyloid nucleation score of 0.288 ± 0.44.

In the case of LWVFRCARLKVWQPRKGWGQ, the amyloid nucleation score worked out at 0.844 ± 0.48.

As for NPHCVSLKTRIPFVGGSKCG, the amyloid nucleation score is -0.748 ± 1.2.

Turning to GRQGYMAYFVMALLLCIFTH, the amyloid nucleation score was determined as 0.128 ± 0.48.

The substance GLVIELNPFKSLLSSPWVFF displayed an amyloid nucleation score of 0.335 ± 0.71.

In the case of LVFVTWLSMHVNTTGVFSLS, the amyloid nucleation score was determined as 0.242 ± 0.41.

Turning to FWVFLTRKLCYSHGRVLALV, the amyloid nucleation score is -0.708 ± 1.1.

YFSLFYCKVSGESTLYFCGH displayed an amyloid nucleation score of 5.88 ± 0.066.

As to DLAFRPVLVLQ, the amyloid nucleation score stood at 0.762 ± 0.65.

GRFFVHEVGMFQTSGQ yielded an amyloid nucleation score of -0.187 ± 1.3.

Turning to LWWFEYRL, the amyloid nucleation score was -0.016 ± 0.32.

The substance NYMSMWTV had an amyloid nucleation score of 0.324 ± 0.9.

Consider FNFNFRRFYHVRGFDSRSHL, for which the amyloid nucleation score was determined as 0.473 ± 0.58.

Regarding SLRLFEFFWLTFGSSQIHLA, the amyloid nucleation score is -0.032 ± 0.5.

Consider WIRDDVVMGGAECCLVLNQ, for which the amyloid nucleation score turned out to be 1.24 ± 0.58.

With ELKRGVHLRPE, the amyloid nucleation score was 4.36 ± 0.14.

In the case of RLVSMEVCCTARLPCPYLLK, the amyloid nucleation score was found to be 2.09 ± 0.25.

NKCIAKDGDMES returned an amyloid nucleation score of -0.015 ± 0.23.

On to LDVCCEYPSKSSVMEWQVWL, for which the amyloid nucleation score came to 1.02 ± 0.54.

In turn, RSVPLFDHPWNRVTLRFSIL yielded an amyloid nucleation score of 0.714 ± 0.47.

As for NDDNCSSVSWWNKWCSTR, the amyloid nucleation score was 1.44 ± 0.41.

DMEYGGKRHNNCSDLIITNC: the amyloid nucleation score was -0.726 ± 1.1.

GVCRLLGKVAMLV came in with an amyloid nucleation score of -2.1 ± 2.4.

As to NSVVRVIKRSWRTVVLLHDR, the amyloid nucleation score was -0.621 ± 1.4.

In turn, IWAHVPTSRYEILVVFSG registered an amyloid nucleation score of 0.253 ± 0.45.

The substance VHFQYFLMLKLAQFVVVWNK registered an amyloid nucleation score of 0.669 ± 0.84.

The substance RVRVSLTWQLISLVVMSEYR gave an amyloid nucleation score of 0.809 ± 0.64.

Regarding GFGMFATTGKVLSMRAFQ, the amyloid nucleation score came out at 0.025 ± 0.59.

DSVLNGSFAACLDWDALPGQ yielded an amyloid nucleation score of 0.272 ± 0.54.

With LLNEDYTGHSCDPEGEDTR, the amyloid nucleation score was found to be 0.589 ± 0.52.

On to SLVLDGVSTPPIDYLNLVLV, for which the amyloid nucleation score was -1.26 ± 0.76.

On to GLRKYVKPVYSMCVFFLKWA, for which the amyloid nucleation score came out at 1.02 ± 0.58.

In turn, ELKLLSNAFGMQGIWIRRVV gave an amyloid nucleation score of -0.113 ± 0.32.

Take VGHPKVFWDGVGSRTILERS: the amyloid nucleation score worked out at 0.48 ± 0.74.

As to EEGDAAGVVILNMQRSYG, the amyloid nucleation score was -0.427 ± 0.41.

PIHPRTLMG: the amyloid nucleation score was determined as 0.117 ± 0.59.

Turning to RLHAVTSLCR, the amyloid nucleation score stood at 5.42 ± 0.1.

In turn, MEPFSAC yielded an amyloid nucleation score of -0.276 ± 1.9.
